The assay has as its target β-Klotho overexpressed in recombinant human 293T kidney cells. Kind of assay: cell-based or functional assay.
As for MKEDD-hFGF21-(L15)-hFc (Fc fusion), the EC50 (nM), ELK luciferase assay worked out at 834 nM and the Efficacy, ELK luciferase assay is 83.1%.
Take “hFc-(L15)-hFGF21(1-178, L98R, P171G) (Fc fusion)”: the EC50 (nM), ELK luciferase assay was 167 nM and the Efficacy, ELK luciferase assay came out at 63.9%.
On the same counts, the results for “hFc-(L15)-hFGF21(L98R, P171G, 1-179) (Fc fusion)” are 7.8 nM and 77.4%.
As to “hFc-(L15)-hFGF21(L98R, P171G, A180P) (Fc fusion)”, the EC50 (nM), ELK luciferase assay was 617 nM and the Efficacy, ELK luciferase assay was 77.1%.
On the same counts, the results for “hFc-(L15)-hFGF21(L98R, P171G, GGGGG182-6) (Fc fusion)” are 4310 nM and 99.7%.
“hFc-(L15)-hFGF21(L98R, P171G, S181A) (Fc fusion)”: the EC50 (nM), ELK luciferase assay was found to be 2.66 nM and the Efficacy, ELK luciferase assay amounted to 73.5%.
On to “hFc-(L15)-hFGF21(L98R, P171G, S181G) (Fc fusion)”, for which the EC50 (nM), ELK luciferase assay amounted to 3.43 nM and the Efficacy, ELK luciferase assay came to 77.3%.
As for “hFc-(L15)-hFGF21(L98R, P171G, S181K) (Fc fusion)”, the EC50 (nM), ELK luciferase assay was 130 nM and the Efficacy, ELK luciferase assay was 87.9%.
On the same counts, the results for “hFc-(L15)-hFGF21(L98R, P171G, S181L) (Fc fusion)” are 3.46 nM and 72.6%.
As for “hFc-(L15)-hFGF21(L98R, P171G, S181P) (Fc fusion)”, the EC50 (nM), ELK luciferase assay stood at 33.8 nM and the Efficacy, ELK luciferase assay turned out to be 79.5%.
On the same counts, the results for “hFc-(L15)-hFGF21(L98R, P171G, S181P, P182) (Fc fusion)” are 272 nM and 69.9%.
Consider “hFc-(L15)-hFGF21(L98R, P171G, S181T) (Fc fusion)”, for which the EC50 (nM), ELK luciferase assay is 3.07 nM and the Efficacy, ELK luciferase assay is 77.6%.
On the same counts, the results for “hFc-(L15)-hFGF21(L98R, P171G, Y179G) (Fc fusion)” are 61 nM and 82.6%.
“hFc-(L15)-hFGF21(L98R, P171G, Y179P) (Fc fusion)”: the EC50 (nM), ELK luciferase assay came out at 428 nM and the Efficacy, ELK luciferase assay was 44.4%.
